# Test results reported in article PMC5078831.
# Target: Coxsackie B–Adenovirus Receptor (CAR), human, of 293 cells (human (endogenous in 293)) (UniProt P78310)
# Test: ELISA; virus attachment assay: cells on 96-well plates, biotinylated AdV5 (MOI=100 virus particles per cell) for 90 min on ice (4 °C) or at 37 °C, washed, fixed with 3 % paraformaldehyde, streptavidin-HRP; anti-CAR antibodies blocked 95–98 % of the signal (data not shown)
# UniProt P78310, sequence (P78310 20-365): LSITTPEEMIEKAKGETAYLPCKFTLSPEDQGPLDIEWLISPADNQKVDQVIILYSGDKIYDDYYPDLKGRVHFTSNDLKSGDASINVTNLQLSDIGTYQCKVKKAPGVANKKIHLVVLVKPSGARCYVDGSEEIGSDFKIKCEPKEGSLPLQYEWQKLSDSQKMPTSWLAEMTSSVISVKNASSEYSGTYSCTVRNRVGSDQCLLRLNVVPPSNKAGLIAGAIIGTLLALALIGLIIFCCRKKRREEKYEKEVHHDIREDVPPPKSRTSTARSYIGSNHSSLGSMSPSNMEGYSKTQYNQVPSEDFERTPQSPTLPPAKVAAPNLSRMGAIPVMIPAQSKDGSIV
substance,measurement,value
biotinylated AdV5-GFP virus particles (complex),percent of the virus attached to cells,> 60%
